Literature values as cited in US20070264667A1, “Method and system for assaying transferase activity” (priority 2003, published 2007).

Columns and labels:
[1] = molecular target: IRK (Homo sapiens, UniProt P06213); conditions: competitive inhibitor of IRK; ref (20); read-out: reported Km
[2] = molecular target: EGF receptor kinase (Homo sapiens, UniProt P00533); conditions: ref (22)
EGF receptor kinase, sequence (P00533 25-1210): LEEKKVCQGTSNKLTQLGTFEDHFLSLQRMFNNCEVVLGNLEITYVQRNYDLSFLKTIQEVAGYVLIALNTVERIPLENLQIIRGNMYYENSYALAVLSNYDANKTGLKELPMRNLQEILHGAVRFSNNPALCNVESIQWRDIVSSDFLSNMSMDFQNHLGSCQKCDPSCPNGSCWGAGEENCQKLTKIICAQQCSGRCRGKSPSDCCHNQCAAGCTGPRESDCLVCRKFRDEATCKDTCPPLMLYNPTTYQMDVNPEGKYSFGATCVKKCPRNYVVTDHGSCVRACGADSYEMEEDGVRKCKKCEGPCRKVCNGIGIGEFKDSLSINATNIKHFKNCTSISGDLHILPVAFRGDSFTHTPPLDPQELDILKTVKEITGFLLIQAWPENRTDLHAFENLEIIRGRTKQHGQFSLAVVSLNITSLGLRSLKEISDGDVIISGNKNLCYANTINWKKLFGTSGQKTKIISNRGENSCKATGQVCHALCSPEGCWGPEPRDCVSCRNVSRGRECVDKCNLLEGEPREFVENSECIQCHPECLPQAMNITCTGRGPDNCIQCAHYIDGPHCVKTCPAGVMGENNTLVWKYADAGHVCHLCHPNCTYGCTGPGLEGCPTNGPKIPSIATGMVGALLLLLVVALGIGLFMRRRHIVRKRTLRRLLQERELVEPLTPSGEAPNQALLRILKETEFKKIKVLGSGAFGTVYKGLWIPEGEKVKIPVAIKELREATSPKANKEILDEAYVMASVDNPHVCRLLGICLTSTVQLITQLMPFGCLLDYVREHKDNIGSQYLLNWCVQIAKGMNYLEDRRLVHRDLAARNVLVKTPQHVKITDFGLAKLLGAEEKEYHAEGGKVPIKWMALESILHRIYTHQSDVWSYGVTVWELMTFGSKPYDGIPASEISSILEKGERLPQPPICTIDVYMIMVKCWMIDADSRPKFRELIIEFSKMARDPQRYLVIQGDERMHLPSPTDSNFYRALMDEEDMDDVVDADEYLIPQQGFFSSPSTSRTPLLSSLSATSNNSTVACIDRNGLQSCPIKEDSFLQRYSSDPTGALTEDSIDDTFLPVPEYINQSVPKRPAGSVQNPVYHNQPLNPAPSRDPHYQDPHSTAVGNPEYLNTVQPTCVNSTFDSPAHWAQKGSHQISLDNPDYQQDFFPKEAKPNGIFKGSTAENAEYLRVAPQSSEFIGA

| Compound | Km [1] [µM] | Ki [2] [µM] |
| --- | --- | --- |
| 1RS727: peptide inhibitor of IRK with the sequence KKKLPATGDYMNMSPVGD | ~24 |  |
| O=C(O)c1cc(N(Cc2ccccc2O)Cc2cc(O)ccc2O)ccc1O [Lavendustin A] |  | 0.011 |
